Assay: Plasma pharmacokinetics of HHC^MET in Wistar rats (sandwich ELISA)
Assay type: in vivo
Conditions: n = 3
Description: This study was performed in order to investigate the plasma pharmacokinetics of HHC^MET in Wistar rats following subcutaneous and intramuscular administration of transient HHC^MET-linker hydrogel prodrug 32 or following subcutaneous or intravenous administration of free HHC^MET. Animals (n=3 per group) received either a single SC injection in the neck region or a single IM injection in the thigh musculature of a formulation of 32 (10 mg/kg HHC^MET equivalents) or a single SC injection in the neck region or IV injection in the tail vein of an HHC^MET formulation (10 mg/kg HHC^MET). At selected time points, 200 μL blood were collected in Li-Heparin tubes and processed to plasma by centrifugation at 3,000 g for 10 minutes at 4° C. HHC^MET concentrations in rat plasma were determined with an in-house developed sandwich ELISA setup. For capturing HHC^MET, a human CTLA-4 (AA Ala37-Ser160)-Fc Tag fusion protein (Supplier AcroBiosystem, Newark, Del.; USA, catalog no. CT4-H5255) was coated to the ELISA plate wells and read-out was performed via a rabbit anti-camelid VHH antibody conjugated with horseradish peroxidase (supplier Genscript, Piscataway, N.J., USA, catalog no. A01861-200).
Calibration standards of HHC^MET in blank plasma were prepared as follows: thawed Li-Heparin Wistar rat plasma was homogenized. The free HHC^MET formulation was spiked into blank plasma at concentrations between 96.0 ng/mL and 3.00 ng/mL with additional higher and lower anchor points. These solutions were used for the generation of a calibration curve. Calibration curves were analyzed via a 4-parameter […] fit and 1/Y weighted. Calibration curves were confirmed via separately prepared quality control standards at 10, 40 and 80 ng/mL.

B1: HHC^MET: custom made protein of SEQ ID NO:1, expressed from E. coli (protein)
chain: EVQLVESGGGLVQAGGSLRLSCAASGGTFSFYGMGWFRQAPGKEQEFVADIRTSAGRTYYADSVKGRFTISRDNAKNTVYLQMNSLKPEDTAVYYCAAEMSGISGWDYWGQGTQVTVSSGGGGSGGGSEVQLVESGGGLVQAGGSLRLSCAASGGTFSFYGMGWFRQAPGKEQEFVADIRTSAGRTYYADSVKGRFTISRDNAKNTVYLQMNSLKPEDTAVYYCAAEMSGISGWDYWGQGTQVTVSS
modifications: nanobody
With B1 the “mean HHC^MET concentration in plasma” value (intravenous, 10 mg/kg, 0.25 h) was 17400 ng/mL, the “mean HHC^MET concentration in plasma” value (intravenous, 10 mg/kg, 1 h) was 3530 ng/mL and the “mean HHC^MET concentration in plasma” value (intravenous, 10 mg/kg, 4 h) was 1720 ng/mL. The “mean HHC^MET concentration in plasma” value (intravenous, 10 mg/kg, 24 h) was 8.27 ng/mL, the “mean HHC^MET concentration in plasma” value (intravenous, 10 mg/kg, 32 h) was “<LLOQ” and the “mean HHC^MET concentration in plasma” value (intravenous, 10 mg/kg, 48 h) was “<LLOQ”. For the same molecule, the “mean HHC^MET concentration in plasma” value (intravenous, 10 mg/kg, 72 h) was 1.15 ng/mL, the “mean HHC^MET concentration in plasma” value (intravenous, 10 mg/kg, 96 h) was “<LLOQ” and the “mean HHC^MET concentration in plasma” value (intravenous, 10 mg/kg, 168 h) was “<LLOQ”. For the same molecule, the “mean HHC^MET concentration in plasma” value (subcutaneous, 10 mg/kg HHC^MET (equivalents), 0.25 h) was 2540 ng/mL, the “mean HHC^MET concentration in plasma” value (subcutaneous, 10 mg/kg HHC^MET (equivalents), 1 h) was 5090 ng/mL and the “mean HHC^MET concentration in plasma” value (subcutaneous, 10 mg/kg HHC^MET (equivalents), 4 h) was 2280 ng/mL. The “mean HHC^MET concentration in plasma” value (subcutaneous, 10 mg/kg HHC^MET (equivalents), 24 h) was 2.60 ng/mL, the “mean HHC^MET concentration in plasma” value (subcutaneous, 10 mg/kg HHC^MET (equivalents), 32 h) was “<LLOQ” and the “mean HHC^MET concentration in plasma” value (subcutaneous, 10 mg/kg HHC^MET (equivalents), 48 h) was “<LLOQ”. The “mean HHC^MET concentration in plasma” value (subcutaneous, 10 mg/kg HHC^MET (equivalents), 72 h) was 2.07 ng/mL, the “mean HHC^MET concentration in plasma” value (subcutaneous, 10 mg/kg HHC^MET (equivalents), 96 h) was “<LLOQ” and the “mean HHC^MET concentration in plasma” value (subcutaneous, 10 mg/kg HHC^MET (equivalents), 168 h) was “<LLOQ”.

From patent US20230110994A1, “CONJUGATES UNDERGOING INTRAMOLECULAR REARRANGEMENTS” (Ascendis Pharma A/S, priority 2020, published 2023)
